Data on two proteins can be found in article PMC7037036, “C-Terminal Domain of the Human Zinc Transporter hZnT8 Is Structurally Indistinguishable from Its Disease Risk Variant (R325W)” (International Journal of Molecular Sciences, 2020).

The series deals with the molecule itself. As to the kind of experiment: SEC; Superdex 75, protein 10 mg/mL, 20 mM Tris pH 7.5, 150 mM NaCl, native conditions; calibrated with standard proteins; for the WT CTD the profile was similar with 3 mM beta-mercaptoethanol and the tetramer was kept in 8 M urea (some aggregates).

Positions count from the first letter of the chain named. Numbers in names are those of the source.

B1: C-terminal domain (CTD) of the human zinc transporter 8 (hZnT8), wild type (domain or fragment, UniProt Q8IWU4 281-369, looked up)
chain: SLNYSGVKELILAVDGVLSVHSLHIWSLTMNQVILSAHVATAASRDSQVVRREIAKALSKSFTMHSLTIQMESPVDQDPDCLFCEDPCD
notes: human zinc transporter 8 (hZnT8, SLC30A8), C-terminal domain, Ser281-Asp369; Expressed as His-MBP-TEV-CTD from a pET28a-based vector; N-terminal tags removed with TEV protease; Measured mass 9.828 kDa; also called WT CTD; hZnT8 CTD; source: E. coli BL21 (DE3), purified (Ni-NTA, TEV cleavage, Hi-Trap Q anion exchange, repeated Ni-NTA, amylose resin); not shown: His tag, N-terminal, cleaved; MBP, …
Regarding B1, the “stoichiometry N” value is 4.

B2: C-terminal domain (CTD) of the human zinc transporter 8 (hZnT8), disease risk variant R325W (domain or fragment, UniProt Q8IWU4 281-369, looked up)
chain: B1 chain with R45W
notes: human zinc transporter 8 (hZnT8, SLC30A8), C-terminal domain, Ser281-Asp369, natural variant R325W (SNP rs13266634); Made from the WT CTD plasmid by QuikChange site-directed mutagenesis; N-terminal tags removed with TEV protease; also called R325W CTD; CTD of the disease risk variant; source: E. coli BL21 (DE3), purified (Ni-NTA, TEV cleavage, Hi-Trap Q anion exchange, repeated Ni-NTA, amylose …)
B2: the “stoichiometry N” value was 4.
